Assay results: article PMC12097012, “Direct Quantification of Protein–Protein Interactions in Living Bacterial Cells” (Advanced Science, 2025)
Each block holds one binder with its values, some of them ahead of it. Ends that are not written are not given here.

What was measured:
UvrA-eGFPd = target: T1, UvrA-eGFPd (E. coli, UniProt P0A698 1-940); test: FRET or BRET; KD-FRET: sensitized-emission (three-channel) FRET microscopy of single living E. coli BW25993 cells (UvrA/UvrB: uvrA uvrB double deletion strain), donor eGFPd fusion from pFF838, acceptor mRFP fusion from pBBR6k, M9 medium, 37 °C; corrections to step 6; FRET efficiency against binned acceptor concentration fitted to a quadratic binding equation; details: partners not purified
T1 construct: UvrA, nucleotide excision repair protein of E. coli; source: E. coli BW25993 with double deletion of uvrA and uvrB (SY006), expressed from the donor vector, in living cells; not shown: eGFPd, C-terminal, kept
T1 sequence (looked up): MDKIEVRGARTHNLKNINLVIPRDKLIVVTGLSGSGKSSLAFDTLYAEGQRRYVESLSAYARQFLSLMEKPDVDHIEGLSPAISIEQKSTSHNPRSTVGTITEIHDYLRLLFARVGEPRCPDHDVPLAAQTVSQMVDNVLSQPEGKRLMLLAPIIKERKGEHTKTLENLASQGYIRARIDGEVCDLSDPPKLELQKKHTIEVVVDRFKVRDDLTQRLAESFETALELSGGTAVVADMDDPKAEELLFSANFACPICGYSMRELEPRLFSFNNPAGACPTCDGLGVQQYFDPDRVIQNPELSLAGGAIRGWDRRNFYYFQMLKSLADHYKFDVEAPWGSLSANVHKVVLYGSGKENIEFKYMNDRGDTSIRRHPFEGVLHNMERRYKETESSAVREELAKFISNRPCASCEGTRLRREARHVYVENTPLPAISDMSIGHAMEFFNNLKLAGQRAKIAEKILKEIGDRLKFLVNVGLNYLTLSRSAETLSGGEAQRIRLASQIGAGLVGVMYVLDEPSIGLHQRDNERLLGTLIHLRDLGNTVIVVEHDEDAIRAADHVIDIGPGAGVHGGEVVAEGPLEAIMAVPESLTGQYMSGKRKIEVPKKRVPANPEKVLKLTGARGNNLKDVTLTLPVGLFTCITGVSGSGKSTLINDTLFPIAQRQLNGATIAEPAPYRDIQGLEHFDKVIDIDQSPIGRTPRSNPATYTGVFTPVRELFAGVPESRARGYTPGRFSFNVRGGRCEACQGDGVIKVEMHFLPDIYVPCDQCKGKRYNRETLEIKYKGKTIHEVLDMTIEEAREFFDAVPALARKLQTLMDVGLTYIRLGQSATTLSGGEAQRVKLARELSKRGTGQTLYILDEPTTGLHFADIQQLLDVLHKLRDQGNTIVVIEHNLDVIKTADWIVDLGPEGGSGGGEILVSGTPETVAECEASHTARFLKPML

[1] = target: T2, ^CDD_(MlnD) labeled with eGFPd; test: as above; details: partners not purified
T2 chain: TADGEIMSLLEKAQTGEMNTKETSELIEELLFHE

[2] = target: T2, ^CDD_(MlnD) labeled with eGFPd; test: FRET or BRET; in vitro FRET with purified fusion proteins in PBS, plate reader, 37 °C; donor protein fixed at 1 × 10^-6 M, acceptor protein 0 to 20 × 10^-6 M; details: both partners purified
^CDD_(ElaJ) = target: T3, ^CDD_(ElaJ); test: FRET or BRET; KD-FRET: sensitized-emission (three-channel) FRET microscopy of single living E. coli BW25993 cells (UvrA/UvrB: uvrA uvrB double deletion strain), donor eGFPd fusion from pFF838, acceptor mRFP fusion from pBBR6k, M9 medium, 37 °C; corrections to step 6; FRET efficiency against binned acceptor concentration fitted to a quadratic binding equation; details: partners not purified
T3 chain: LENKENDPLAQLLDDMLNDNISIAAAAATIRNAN

eGFPd-^CDD_(MlnB) [3] = target: T4, eGFPd-^CDD_(MlnB); test: ITC; cell: 80 × 10^-6 M eGFPd-CDD_MlnB; syringe: 1.6 × 10^-3 M NDD_MlnC-mRFP, 20 injections of 2 µL; 20 mM Tris-HCl pH 7.9, 250 mM NaCl, 1 mM EDTA, 10% glycerol, 1 mM TCEP; 37 °C; single binding site model; details: both partners purified
T4 chain: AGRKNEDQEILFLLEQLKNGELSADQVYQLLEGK

eGFPd-^CDD_(MlnB) [4] = target: T4, eGFPd-^CDD_(MlnB); test: FRET or BRET; KD-FRET: sensitized-emission (three-channel) FRET microscopy of single living E. coli BW25993 cells (UvrA/UvrB: uvrA uvrB double deletion strain), donor eGFPd fusion from pFF838, acceptor mRFP fusion from pBBR6k, M9 medium, 37 °C; corrections to step 6; FRET efficiency against binned acceptor concentration fitted to a quadratic binding equation; details: partners not purified
eGFPd-^CDD_(MlnB) [5] = target: T4, eGFPd-^CDD_(MlnB); test: FRET or BRET; in vitro FRET with purified fusion proteins in PBS, plate reader, 37 °C; donor protein fixed at 1 × 10^-6 M, acceptor protein 0 to 20 × 10^-6 M; details: both partners purified

B1: UvrB-mRFP (natural protein, E. coli, UniProt P0A8F8 1-673, looked up)
chain: MSKPFKLNSAFKPSGDQPEAIRRLEEGLEDGLAHQTLLGVTGSGKTFTIANVIADLQRPTMVLAPNKTLAAQLYGEMKEFFPENAVEYFVSYYDYYQPEAYVPSSDTFIEKDASVNEHIEQMRLSATKAMLERRDVVVVASVSAIYGLGDPDLYLKMMLHLTVGMIIDQRAILRRLAELQYARNDQAFQRGTFRVRGEVIDIFPAESDDIALRVELFDEEVERLSLFDPLTGQIVSTIPRFTIYPKTHYVTPRERIVQAMEEIKEELAARRKVLLENNKLLEEQRLTQRTQFDLEMMNELGYCSGIENYSRFLSGRGPGEPPPTLFDYLPADGLLVVDESHVTIPQIGGMYRGDRARKETLVEYGFRLPSALDNRPLKFEEFEALAPQTIYVSATPGNYELEKSGGDVVDQVVRPTGLLDPIIEVRPVATQVDDLLSEIRQRAAINERVLVTTLTKRMAEDLTEYLEEHGERVRYLHSDIDTVERMEIIRDLRLGEFDVLVGINLLREGLDMPEVSLVAILDADKEGFLRSERSLIQTIGRAARNVNGKAILYGDKITPSMAKAIGETERRREKQQKYNEEHGITPQGLNKKVVDILALGQNIAKTKAKGRGKSRPIVEPDNVPMDMSPKALQQKIHELEGLMMQHAQNLEFEEAAQIRDQLHQLRELFIAAS
notes: UvrB, nucleotide excision repair protein of E. coli; source: E. coli BW25993 with double deletion of uvrA and uvrB (SY006), expressed from the acceptor vector, in living cells; not shown: mRFP, C-terminal, kept
Kd (UvrA-eGFPd): 0.17 µM

Binder: MKDYIEHILEEIKHNRLSKQEGLEQIRQFRSKGNV (domain or fragment, not fully specified) [^NDD_(ElaK)]
Kd (^CDD_(ElaJ)): 1.18 µM

Continued, in another order:

Kd [2]: 1.5 µM
Binder: MNEKTMQIEQIVKKVKECSLTPEEGLELIKSLGKT (domain or fragment, also: labeled with mRFP) [^NDD_(MlnE) labeled with mRFP]
Kd [1]: 0.25 µM

Kd (eGFPd-^CDD_(MlnB) [3]): 6.85 µM
Kd (eGFPd-^CDD_(MlnB) [5]): 5.66 µM
Binder: MQIKQILSLIEEQQMSPDAGLELIRTYRKEQMEKK (domain or fragment, also: fused to mRFP) [^NDD_(MlnC)-mRFP]
Kd (eGFPd-^CDD_(MlnB) [4]): 2.29 µM
